Results reported in PMC5296760, “Structural basis of the interaction between Topoisomerase IIIβ and the TDRD3 auxiliary factor” (Scientific Reports, 2017).
Values joined by “and” are separate entries in the source; they are usually repeats but may differ in a detail not shown here. Identical values can stand only once.

B1: TDRD3 (1–161) of the TOP3β–TDRD3 complex (domain or fragment, human, UniProt Q9H7E2-3 1-161, looked up)
chain: MAQVAGAALSQAGWYLSDEGIEACTSSPDKVNVNDIILIALNTDLRTIGKKFLPSDINSGKVEKLEGPCVLQIQKIRNVAAPKDNEESQAAPRMLRLQMTDGHISCTAVEFSYMSKISLNTPPGTKVKLSGIVDIKNGFLLLNDSNTTVLGGEVEHLIEKW
notes: human TDRD3 DUF1767 and OB-fold domains; made as 1–171, cut by chymotrypsin at Trp161, deposited as 1–161; also called TDRD3 DUF–OB; source: E. coli Rosetta (DE3), purified; TDRD3 (1–171) mixed with TOP3β (1–612), trimmed with chymotrypsin, SEC; not shown: GST, N-terminal, cleaved
B2: TDRD3 OB-fold domain (48–171) (domain or fragment, human, UniProt Q9H7E2-3 48-171, looked up)
chain: IGKKFLPSDINSGKVEKLEGPCVLQIQKIRNVAAPKDNEESQAAPRMLRLQMTDGHISCTAVEFSYMSKISLNTPPGTKVKLSGIVDIKNGFLLLNDSNTTVLGGEVEHLIEKWELQRSLSKHN
notes: human TDRD3 OB-fold domain, residues 48–171; purification is described only for DUF–OB; also called TDRD3 OB-fold domain alone; source: E. coli Rosetta (DE3) (as told for DUF–OB)

Assays:
[1] = target: GST-TOP3β (1–612), wild type (human) (UniProt O95985); assay: pull-down; GST-TOP3β (1–612) on Glutathione Sepharose FF, 1.0 μM TDRD3 or RMI1 protein (Fig. 3f right, 4b); same buffer, 4 °C, 2 hrs; Coomassie, densitometry
[2] = target: GST-TOP3β (1–612), wild type (human) (UniProt O95985); assay: pull-down; GST-TOP3β (1–612) on Glutathione Sepharose FF, 0.2 μM TDRD3 protein (Fig. 3f left); same buffer, 4 °C, 2 hrs; Coomassie, densitometry
[3] = target: GST-TOP3β (1–612), wild type (human) (UniProt O95985); assay: pull-down; GST-TOP3β (1–612) on Glutathione Sepharose FF, 0.5 μM TDRD3 or RMI1 protein (Fig. 3c, 4d, 4e); 20 mM Tris-Cl pH 7.4, 200 mM NaCl, 1 mM MgCl2, 5 mM β-mercaptoethanol, 0.1% Triton X-100, 4 °C, 2 hrs; Coomassie, densitometry
[4] = target: T1, TOP3β TOPO domain (1–612) (human, UniProt O95985 1-612); assay: crystal structure; TOP3β (1–612)–TDRD3 (1–161) complex, 3.6 Å; sitting drop, 20 °C, 50 mM Na-cacodylate pH 6.2, 10 mM MgSO4, 1.7 M Li2SO4; conditions: both partners purified
T1 construct: human Topoisomerase IIIβ, topoisomerase (TOPO) domain, residues 1–612; also called TOP3β (1–612); catalytic domain of TOP3β; source: baculovirus-infected Sf9 cells, purified (Glutathione Sepharose, GST removed by HRV 3C protease, SEC); not shown: GST, N-terminal, cleaved
T1 sequence (looked up): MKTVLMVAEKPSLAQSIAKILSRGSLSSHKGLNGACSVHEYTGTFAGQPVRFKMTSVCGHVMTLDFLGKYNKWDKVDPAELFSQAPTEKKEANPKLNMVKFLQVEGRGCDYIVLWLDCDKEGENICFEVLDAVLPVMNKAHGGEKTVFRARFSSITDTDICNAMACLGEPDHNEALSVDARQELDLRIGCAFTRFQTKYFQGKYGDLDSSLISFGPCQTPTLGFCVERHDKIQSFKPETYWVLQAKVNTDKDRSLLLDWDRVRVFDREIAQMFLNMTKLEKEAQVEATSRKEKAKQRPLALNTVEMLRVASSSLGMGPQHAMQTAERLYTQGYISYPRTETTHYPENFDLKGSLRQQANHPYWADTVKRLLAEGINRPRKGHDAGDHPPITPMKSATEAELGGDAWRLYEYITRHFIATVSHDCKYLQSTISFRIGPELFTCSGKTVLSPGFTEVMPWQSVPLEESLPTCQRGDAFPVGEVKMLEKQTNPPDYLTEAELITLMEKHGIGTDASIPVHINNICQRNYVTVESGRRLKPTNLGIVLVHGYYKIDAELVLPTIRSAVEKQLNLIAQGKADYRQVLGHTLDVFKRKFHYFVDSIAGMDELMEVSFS

[5] = target: T1, TOP3β TOPO domain (1–612); assay: SEC; binding analysis using size-exclusion column chromatography (Supplementary Fig. 3a); conditions: both partners purified

Row | Molecule | percent of wild-type binding [2] [%] | percent of wild-type binding [3] | other results
1 | TDRD3 DUF–OB A80S/A81Q/A90K/A91P/P92S (from UniProt Q9H7E2-3 1-161) (domain or fragment) | – | – | percent of wild-type binding [1]: 80%
2 | TDRD3 DUF–OB A80S/A81S (from UniProt Q9H7E2-3 1-161) (domain or fragment) | > 60 | – | –
3 | TDRD3 DUF–OB F111Y (from UniProt Q9H7E2-3 1-161) (domain or fragment) | – | > 70% | –
4 | TDRD3 DUF–OB F139V (from UniProt Q9H7E2-3 1-161) (domain or fragment) | – | > 70% | –
5 | TDRD3 DUF–OB P82S (from UniProt Q9H7E2-3 1-161) (domain or fragment) | > 60 | – | –
6 | TDRD3 DUF–OB P92S (from UniProt Q9H7E2-3 1-161) (domain or fragment) | 50 | – | –
7 | TDRD3 DUF–OB P^82-GSGSGGS-A^90 (from UniProt Q9H7E2-3 1-161) (domain or fragment) | 60 | – | –
8 | TDRD3 DUF–OB R96M (from UniProt Q9H7E2-3 1-161) (domain or fragment) | – | > 70% | –
9 | TDRD3 DUF–OB R96M/F111Y (from UniProt Q9H7E2-3 1-161) (domain or fragment) | – | > 70% | –
10 | TDRD3 DUF–OB R96M/F139V (from UniProt Q9H7E2-3 1-161) (domain or fragment) | – | > 70% | –
11 | TDRD3 DUF–OB R96M/V109M (from UniProt Q9H7E2-3 1-161) (domain or fragment) | – | > 70% | –
12 | TDRD3 DUF–OB R96M/V109M/F139V (from UniProt Q9H7E2-3 1-161) (domain or fragment) | – | 35% and 30% | –
13 | TDRD3 DUF–OB V79S (from UniProt Q9H7E2-3 1-161) (domain or fragment) | > 60 | – | –
14 | TDRD3 DUF–OB V79S/P82S (from UniProt Q9H7E2-3 1-161) (domain or fragment) | 30 | – | –
15 | TDRD3 DUF–OB V109M (from UniProt Q9H7E2-3 1-161) (domain or fragment) | – | > 70% | –
16 | TDRD3 DUF–OB V109M/F111Y/F139V (from UniProt Q9H7E2-3 1-161) (domain or fragment) | – | > 70% | –
17 | TDRD3 DUF–OB V^79-SSGG-P^92 (from UniProt Q9H7E2-3 1-161) (domain or fragment) | – | – | percent of wild-type binding [1]: 40%
18 | TDRD3-RMI1loop (from UniProt Q9H7E2-3 1-78; Q9H9A7 95-132; Q9H7E2-3 93-161) (domain or fragment) | – | 70% | –
19 | B1 | – | – | binding result [4]: binds
20 | B2 | – | – | binding result [5]: binds
